Experimental data taken from publication PMC4695088, “An Oomycete CRN Effector Reprograms Expression of Plant HSP Genes by Targeting their Promoters”.

Key:
[1] = molecular target: T1, MBP:PsCRN108 (Phytophthora sojae, UniProt A0A0M5K865 18-820); assay: EMSA; up to 6 uM protein, 5 nM DNA; weaker than AtHsfA1a; complex in wells; competed by unlabeled HSE; 25 mM HEPES pH 8, 10 mM MgCl2, 20 mM KCl, 0.1 mM EDTA, 1 mM DTT, 100 ng poly(dI-dC), 5% glycerol, 25 C (EMSA 3 h; pull-down in the same buffer, 1 h + 1 h); conditions: protein: recombinant; tags: N-terminal His, MBP (pHMTc); label: 5' Alex660 (EMSA); blunt
T1 sequence: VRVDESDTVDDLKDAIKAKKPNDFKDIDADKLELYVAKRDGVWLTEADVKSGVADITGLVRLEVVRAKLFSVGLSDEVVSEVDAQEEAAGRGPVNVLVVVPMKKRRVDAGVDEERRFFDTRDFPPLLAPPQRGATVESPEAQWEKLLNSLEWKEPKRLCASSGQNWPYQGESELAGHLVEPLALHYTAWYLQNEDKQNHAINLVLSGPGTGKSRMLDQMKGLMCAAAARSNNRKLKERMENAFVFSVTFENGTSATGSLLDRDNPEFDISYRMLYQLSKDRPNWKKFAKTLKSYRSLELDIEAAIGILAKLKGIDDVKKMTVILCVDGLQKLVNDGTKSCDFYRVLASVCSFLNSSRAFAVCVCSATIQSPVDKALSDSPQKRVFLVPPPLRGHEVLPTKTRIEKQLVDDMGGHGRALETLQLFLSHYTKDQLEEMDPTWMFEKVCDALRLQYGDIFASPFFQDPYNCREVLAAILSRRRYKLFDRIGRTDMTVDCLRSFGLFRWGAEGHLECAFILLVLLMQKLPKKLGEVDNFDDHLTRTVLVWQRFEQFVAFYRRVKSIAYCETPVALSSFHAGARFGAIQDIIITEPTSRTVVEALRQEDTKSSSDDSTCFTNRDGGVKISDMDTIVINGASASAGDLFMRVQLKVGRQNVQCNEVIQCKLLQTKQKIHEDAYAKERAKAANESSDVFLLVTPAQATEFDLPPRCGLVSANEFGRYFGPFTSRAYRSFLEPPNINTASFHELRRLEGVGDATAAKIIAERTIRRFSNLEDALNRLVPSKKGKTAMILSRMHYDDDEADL

[2] = molecular target: T2, MBP:AtHsfA1a (Arabidopsis thaliana, UniProt P41151 1-495); assay: EMSA; up to 2 uM protein, 5 nM DNA; complex in wells; competed by unlabeled HSE; 25 mM HEPES pH 8, 10 mM MgCl2, 20 mM KCl, 0.1 mM EDTA, 1 mM DTT, 100 ng poly(dI-dC), 5% glycerol, 25 C (EMSA 3 h; pull-down in the same buffer, 1 h + 1 h); conditions: protein: recombinant; tags: N-terminal His, MBP (pHMTc); chain copies: 3; label: 5' Alex660 (EMSA); blunt
T2 sequence (P41151 whole entry): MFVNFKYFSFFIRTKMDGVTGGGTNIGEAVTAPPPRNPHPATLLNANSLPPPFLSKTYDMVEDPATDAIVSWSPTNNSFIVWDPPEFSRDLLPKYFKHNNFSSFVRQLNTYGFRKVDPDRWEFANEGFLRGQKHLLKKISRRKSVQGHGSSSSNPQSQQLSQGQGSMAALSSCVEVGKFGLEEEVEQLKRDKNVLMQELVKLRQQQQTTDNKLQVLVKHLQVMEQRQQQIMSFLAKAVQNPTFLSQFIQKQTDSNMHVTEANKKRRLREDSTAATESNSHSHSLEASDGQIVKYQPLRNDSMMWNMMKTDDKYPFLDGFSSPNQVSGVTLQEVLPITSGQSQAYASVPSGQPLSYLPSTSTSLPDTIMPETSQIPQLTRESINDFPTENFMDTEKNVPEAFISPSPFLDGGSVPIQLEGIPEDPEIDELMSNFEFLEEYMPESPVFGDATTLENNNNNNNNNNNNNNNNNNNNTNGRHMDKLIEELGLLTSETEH

[3] = molecular target: T3, GST:PsCRN108 (Phytophthora sojae, UniProt A0A0M5K865 18-820); assay: pull-down; 25 mM HEPES pH 8, 10 mM MgCl2, 20 mM KCl, 0.1 mM EDTA, 1 mM DTT, 100 ng poly(dI-dC), 5% glycerol, 25 C (EMSA 3 h; pull-down in the same buffer, 1 h + 1 h); conditions: protein: recombinant; tags: N-terminal GST (pGEX-4T-2); label: 5' biotin; blunt
T3 sequence: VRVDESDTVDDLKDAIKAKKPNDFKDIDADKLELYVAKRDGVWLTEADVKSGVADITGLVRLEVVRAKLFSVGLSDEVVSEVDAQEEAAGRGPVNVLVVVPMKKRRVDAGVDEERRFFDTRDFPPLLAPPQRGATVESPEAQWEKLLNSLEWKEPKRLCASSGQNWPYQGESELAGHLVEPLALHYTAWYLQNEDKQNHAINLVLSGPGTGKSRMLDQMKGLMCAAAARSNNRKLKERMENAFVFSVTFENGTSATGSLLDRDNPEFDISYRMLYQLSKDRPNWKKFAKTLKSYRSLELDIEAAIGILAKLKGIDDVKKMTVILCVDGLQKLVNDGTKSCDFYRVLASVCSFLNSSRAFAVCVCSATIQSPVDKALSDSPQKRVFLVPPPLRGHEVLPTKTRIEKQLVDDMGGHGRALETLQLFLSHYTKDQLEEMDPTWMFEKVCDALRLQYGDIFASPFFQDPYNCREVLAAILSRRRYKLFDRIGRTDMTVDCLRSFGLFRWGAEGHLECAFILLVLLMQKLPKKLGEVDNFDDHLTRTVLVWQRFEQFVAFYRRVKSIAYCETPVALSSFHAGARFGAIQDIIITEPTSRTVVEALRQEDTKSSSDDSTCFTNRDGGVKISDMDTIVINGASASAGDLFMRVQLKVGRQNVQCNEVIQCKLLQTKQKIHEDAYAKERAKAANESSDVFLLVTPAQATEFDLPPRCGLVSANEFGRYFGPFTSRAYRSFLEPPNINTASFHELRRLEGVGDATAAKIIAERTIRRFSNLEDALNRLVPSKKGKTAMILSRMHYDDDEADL

[4] = molecular target: T1, MBP:PsCRN108; assay: as above; conditions: protein: recombinant; tags: N-terminal His, MBP (pHMTc); label: 5' biotin; blunt
[5] = molecular target: T2, MBP:AtHsfA1a; assay: as above; conditions: protein: recombinant; tags: N-terminal His, MBP (pHMTc); chain copies: 3; label: 5' biotin; blunt

Row | Binder | binding result [1] | binding result [2] | binding result [3] | binding result [4] | binding result [5]
1 | 19 bp HSE (dsDNA) DNA 1: CCAGAAGCTTCCAGAAGCC DNA 2: GGCTTCTGGAAGCTTCTGG | binds | binds |  |  | 
2 | biotinylated 19 bp HSE (dsDNA) DNA 1: CCAGAAGCTTCCAGAAGCC DNA 2: GGCTTCTGGAAGCTTCTGG |  |  | binds | binds | binds
